According to patent US20210393776A1 (FABION PHARMACEUTICALS, published 2021):
Like-named read-outs stand apart in the source and are kept apart here.

T1: full length human EpCAM on CHO cells (human, UniProt P16422 24-314)
T1 construct: CHO cells stably expressing full length human EpCAM; also called hu-EpCAM-FL; human EpCAM-FL
T1 sequence: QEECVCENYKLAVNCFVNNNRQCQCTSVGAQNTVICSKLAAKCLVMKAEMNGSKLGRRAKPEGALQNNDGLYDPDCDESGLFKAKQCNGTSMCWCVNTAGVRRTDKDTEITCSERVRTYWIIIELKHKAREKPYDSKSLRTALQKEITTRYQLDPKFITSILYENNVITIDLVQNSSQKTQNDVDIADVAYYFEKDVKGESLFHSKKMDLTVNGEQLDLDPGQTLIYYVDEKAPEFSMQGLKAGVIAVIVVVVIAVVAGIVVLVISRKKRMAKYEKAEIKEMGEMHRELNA


How the values were obtained:
[1] = biological target: T2, recombinant cyno CD3epsilon/delta Fc(K-H) heterodimer (cynomolgus); test: ELISA, immobilised antigen, biotinylated protein, streptavidin-HRP, ABTS, OD405
T2 construct: also called cynomolgus CD3epsilon/delta; recombinant cyno CD3epsilon/delta heterodimeric Fc protein; copies: 1 + 1

[2] = biological target: T3, human CD3 on cells (Jurkat cells; T cells in human PBMCs) (human, UniProt P07766 23-207); test: flow cytometry on Jurkat cells, biotinylated protein, streptavidin-PE
T3 construct: whole, on cells; the other chains of the complex are present on the cells; also called CD3 on Jurkat cells; CD3 on T cells in PBMC preparation

[3] = biological target: T1, full length human EpCAM on CHO cells; test: flow cytometry on CHO cells stably expressing full length human EpCAM, PE detection
[4] = biological target: T4, human CD3epsilonAA1-27.Fc (human); test: ELISA, immobilised antigen, biotinylated protein, streptavidin-HRP, ABTS, OD405
T4 construct: also called recombinant human CD3epsilon N-terminal peptide (aa1-27.Fc fusion); CD3epsilon N-terminal amino acid 1-27 peptide Fc fusion

[5] = biological target: T1, full length human EpCAM on CHO cells; test: flow cytometry on CHO cells stably expressing full length human EpCAM, PE detection; remark: listed apart in the source
[6] = biological target: T2, recombinant cyno CD3epsilon/delta …; test: ELISA, immobilised antigen, biotinylated protein, streptavidin-HRP, ABTS, OD405; remark: listed apart in the source
[7] = biological target: T4, human CD3epsilonAA1-27.Fc; test: as above; remark: listed apart in the source

Binder	binding result [1]	binding result [2]	binding result [3]	binding result [4]	binding result [5]	EC50 (read off the curve) [6]	binding result [6]	EC50 (read off the curve) [7]
anti EpCAM scFv fusion to the LC alone of OKT3 Fab (bispecific antibody, also called EpCAM1.1×OKT3 Fab fusion, LC only) heavy: not shown light: QVQLQQSGGGLVQPGGSLRLSCAASGFTFSNYWMSWVRQAPGKGLEWVANIKQDGSEKFYVDSVKGRFTISRDNAKNSLYLQMNSLRAEDMAVYYCARVGGAWELGYWGQGTLVTVSAGGGGSGGGGSGGGGSGAQSVLTQPPSVSGAPGQRVTISCTGSSSNIGSYYGVHWYQQIPGTAPKLLIYSDTNRPSGVPDRFSGSKSGTSASLAITGLQAEDEADYYCQSYDSSLSGRVFGGGTKVTVLGRAQIVLTQSPAIMSASPGEKVTMTCSASSSVSYMNWYQQKSGTSPKRWIYDTSKLASGVPAHFRGSGSGTSYSLTISGMEAEDAATYYCQQWSSNPFTFGSGTKLEINRTVAAPSVFIFPPSDEQLKSGTASVVCLLNNFYPREAKVQWKVDNALQSGNSQESVTEQDSKDSTYSLSSTLTLSKADYEKHKVYACEVTHQGLSSPVTKSFNRGEC	no binding (tested: about 80 nM (last point; axis to 100 nM))	no binding	binds	no binding (tested: about 80 nM (last point; axis to 100 nM))				
anti EpCAM scFv fusion to both HC and LC of OKT3 Fab (bispecific antibody, also called EpCAM1.1×OKT3 Fab fusion, HC and LC) heavy: not shown light: QVQLQQSGGGLVQPGGSLRLSCAASGFTFSNYWMSWVRQAPGKGLEWVANIKQDGSEKFYVDSVKGRFTISRDNAKNSLYLQMNSLRAEDMAVYYCARVGGAWELGYWGQGTLVTVSAGGGGSGGGGSGGGGSGAQSVLTQPPSVSGAPGQRVTISCTGSSSNIGSYYGVHWYQQIPGTAPKLLIYSDTNRPSGVPDRFSGSKSGTSASLAITGLQAEDEADYYCQSYDSSLSGRVFGGGTKVTVLGRAQIVLTQSPAIMSASPGEKVTMTCSASSSVSYMNWYQQKSGTSPKRWIYDTSKLASGVPAHFRGSGSGTSYSLTISGMEAEDAATYYCQQWSSNPFTFGSGTKLEINRTVAAPSVFIFPPSDEQLKSGTASVVCLLNNFYPREAKVQWKVDNALQSGNSQESVTEQDSKDSTYSLSSTLTLSKADYEKHKVYACEVTHQGLSSPVTKSFNRGEC	no binding (tested: about 80 nM (last point; axis to 100 nM))	no binding	binds	no binding (tested: about 80 nM (last point; axis to 100 nM))				
EpCAM2.2-(H)-hu-1F3.1 Fab (bispecific antibody, member of groups m21 and m31) heavy chain Fd with anti-EpCAM scFv EpCAM2.2 at the N-terminus: QVQLQESGPGLVKPSETLTLTCSVSGGSISGYYWSWIRQPPGMGLEWIGSVHHSGSTSYNPSLKSRVTISVDTSKNQFSLKLNSVTAADTAVYYCARYRGSGLDYWGQGTLVTVSSGGGGSGGGGSGGGGSQSVLTQPPSVSAAPGQKVTISCSGDSSNIGKNYVSWYQQLPGTAPKLLIYENNERPSGVPDRFSGSKSGTSATLGITGLQTGDEADYYCAAWDTSLSARVFGGGTKVTVLGRAEVQLVESGGGLVQPGGSLRLSCAASGFTFSTYAMNWVRQAPGKGLEWVSRIRSKYNNYATYYADSVKDRFTISRDDSKNTLYLQMNSLRAEDTAVYYCARHGNFGNSYVSWFAYWGQGTMVTVSSASTKGPSVFPLAPCSRSTSESTAALGCLVKDYFPEPVTVSWNSGALTSGVHTFPAVLQSSGLYSLSSVVTVPSSNFGTQTYTCNVDHKPSNTKVDKTVGGGGSHHHHHHH light chain, unfused: QAVVTQEPSLTVSPGGTVTLTCRSSTGAVTTSNYANWVQQKPGQAPRGLIGGTNKRAPGTPARFSGSLLGGKAALTLSGVQPEDEAEYYCALWYSNLWVFGGGTKLTVLGQPKAAPSVTLFPPSSEELQANKATLVCLISDFYPGAVTVAWKADSSPVKAGVETTTPSKQSNNKYAASSYLSLTPEQWKSHRSYSCQVTHEGSTVEKTVAPTECS					binds	~2 nM		
EpCAM2.2-(L)-hu-1F3.1 Fab (bispecific antibody, member of groups m21 and m31; also called EpCAM2.2-(L)-hu-1F3 Fab) heavy chain Fd (VH-CH1), unfused: EVQLVESGGGLVQPGGSLRLSCAASGFTFSTYAMNWVRQAPGKGLEWVSRIRSKYNNYATYYADSVKDRFTISRDDSKNTLYLQMNSLRAEDTAVYYCARHGNFGNSYVSWFAYWGQGTMVTVSSASTKGPSVFPLAPCSRSTSESTAALGCLVKDYFPEPVTVSWNSGALTSGVHTFPAVLQSSGLYSLSSVVTVPSSNFGTQTYTCNVDHKPSNTKVDKTVGGGGSHHHHHHH light chain with anti-EpCAM scFv EpCAM2.2 at the N-terminus: QVQLQESGPGLVKPSETLTLTCSVSGGSISGYYWSWIRQPPGMGLEWIGSVHHSGSTSYNPSLKSRVTISVDTSKNQFSLKLNSVTAADTAVYYCARYRGSGLDYWGQGTLVTVSSGGGGSGGGGSGGGGSQSVLTQPPSVSAAPGQKVTISCSGDSSNIGKNYVSWYQQLPGTAPKLLIYENNERPSGVPDRFSGSKSGTSATLGITGLQTGDEADYYCAAWDTSLSARVFGGGTKVTVLGRAQAVVTQEPSLTVSPGGTVTLTCRSSTGAVTTSNYANWVQQKPGQAPRGLIGGTNKRAPGTPARFSGSLLGGKAALTLSGVQPEDEAEYYCALWYSNLWVFGGGTKLTVLGQPKAAPSVTLFPPSSEELQANKATLVCLISDFYPGAVTVAWKADSSPVKAGVETTTPSKQSNNKYAASSYLSLTPEQWKSHRSYSCQVTHEGSTVEKTVAPTECS					binds		binds	~2 nM
